Tests used:
M1-diUb [1] = target: T1, M1-diUb (UniProt P0CG48 1-76; P0CG48 1-76); test: ITC; 293 K; 50 mM HEPES pH 7.4, 50 mM NaCl, 0.5 mM TCEP; cell 50–100 μM, syringe usually 10-fold; 20 injections of 2 μl; averages of at least two experiments; which partner was in the syringe not stated; settings: both partners purified
T1 construct: ubiquitin, distal unit of M1-linked (linear) diUb; ubiquitin, proximal unit of M1-linked (linear) diUb; also called M1-linked diUb; linear diUb

monoUb [2] = target: T2, monoUb (UniProt P0CG48 1-76); test: as above; settings: both partners purified
T2 construct: ubiquitin; 15N-labelled in some NMR titrations; also called ubiquitin

[3] = target: the molecule itself; test: SEC; analytical size exclusion, Superose 12 10/300; 50 mM HEPES pH 8.5, 150 mM NaCl, 1 mM DTT, 0.5% Triton X-100
M1-diUb [4] = target: T1, M1-diUb; test: SPR; Biacore S200; TF-N4BP1 fragment amine-coupled to a CM5 chip, mono- and diUb flowed over at 30 μl/min; HBS-P+ (10 mM HEPES pH 7.4, 150 mM NaCl, 0.05% Tween 20), 25 °C; KD from plateau levels; settings: both partners purified
monoUb [5] = target: T2, monoUb; test: as above; settings: both partners purified

B1: N4BP1 (850–893) (domain or fragment, mouse, UniProt Q6A037 850-893, looked up)
chain: ETSELREALLKIFPDSEQKLKIDQILAAHPYMKDLNALSALVLD
notes: His-tag removed with 3C protease for ITC and NMR; 15N- or 15N/13C-labelled for NMR; also called isolated CUE domain; N4BP1 CUE domain; not shown: His-tag, N-terminal, cleaved
Q: With B1 as the binder, how does the dH (M1-diUb [1]) read?
A: Its dH is -5.3 kcal/mol.

Q: What about the “stoichiometry N” value (M1-diUb [1]) of the same binder?
A: Its value is 2.16.

Q: What about the Kd (monoUb [2]) of the same binder?
A: Its Kd is 27.5 ± 5.6 µM.

Q: And the dH (monoUb [2])?
A: The dH was -5.2 kcal/mol.

Q: And the “stoichiometry N” value (monoUb [2])?
A: The value was 0.915.

Q: Does B1 bind [3]?
A: Result: binds

B2: N4BP1 (613-774), from pCold-I, His-tagged (domain or fragment, mouse, UniProt Q6A037 613-774, looked up)
chain: ADLKHIVIDGSNVAITHGLKKFFSCRGIAIAVEYFWKLGNRNITVFVPQWRTRRDPNITEQHFLTQLQELGILSLTPARMVFGERIASHDDRFLLHLADKTGGIIVTNDNFREFVTESVSWREIITKRLLQYTFVGDIFMVPDDPLGRNGPRLEEFLRKEAF
notes: N4BP1, mouse, RNase domain, residues 613-774; source: E. coli BL21, purified
Q: Does B2 bind [3]?
A: Result: binds

B3: TF-N4BP1 (613–893) (domain or fragment, mouse, UniProt Q6A037 613-893, looked up)
chain: ADLKHIVIDGSNVAITHGLKKFFSCRGIAIAVEYFWKLGNRNITVFVPQWRTRRDPNITEQHFLTQLQELGILSLTPARMVFGERIASHDDRFLLHLADKTGGIIVTNDNFREFVTESVSWREIITKRLLQYTFVGDIFMVPDDPLGRNGPRLEEFLRKEAFLRHMQPLLNALPSVGTFDPGFRSPSTQVANNSHQPPPRIQTSSSPWLPQQSHFTALATLPSMQQNPPLPAQRSSAETSELREALLKIFPDSEQKLKIDQILAAHPYMKDLNALSALVLD
notes: also called dimeric N4BP1
Q: Which Kd (M1-diUb [4]) does the source give for B3 here?
A: The Kd was 0.43 µM.

Q: And the Kd (monoUb [5])?
A: The Kd was 84.9 µM.

B4: N4BP1 (613–893), from pCold-I, His-tagged (domain or fragment, mouse, UniProt Q6A037 613-893, looked up)
chain: B3 chain
notes: source: E. coli BL21, purified
Q: Does B4 bind [3]?
A: Result: binds

Source: article PMC11032371 (Cell Death Discovery, 2024)
